Results as given in patent publication US20250066745A1, “MUTANTS AND USE THEREOF” (BGI SHENZHEN, priority 2021, published 2025).
Residue numbers refer to the chain shown, from its start. In names and notes the source's numbering stands.

B1: P53L: Gaussia luciferase mutant (protein)
chain: MGVKVLFALICIAVAEAKPTENNEDFNIVAVASNFATTDLDADRGKLPGKKLLLEVLKEMEANARKAGCTRGCLICLSHIKCTPKMKKFIPGRCHTYEGDKESAQGGIGEAIVDIPEIPGFKDLEPMEQFIAQVDLCVDCTTGCLKGLANVQCSDLLKKWLPQRCATFASKIQGQVDKIKGAGGD
modifications: SIGNAL (1)..(17)
notes: Gaussia luciferase mutant
B2: E102K S103T A104G E110G V138D I172: Gaussia luciferase mutant (protein)
chain: B1 chain with L53P, E102K, S103T, A104G, E110G, V138D
B3: P84K E102A: Gaussia luciferase mutant (protein)
chain: B1 chain with L53P, P84K, E102A
modifications: SIGNAL (1)..(17)
notes: Gaussia luciferase mutant
B4: Q152H Q163D T167G S170V G174K Q175E K178N: Gaussia luciferase mutant (protein)
chain: B1 chain with L53P, Q152H, Q163D, T167G, S170V, G174K, Q175E, K178N
modifications: SIGNAL (1)..(17)
notes: Gaussia luciferase mutant
B5: Q152K Q163S T167G S170V G174K Q175E K180: Gaussia luciferase mutant (protein)
chain: B1 chain with L53P, Q152K, Q163S, T167G, S170V, G174K, Q175E
B6: P84K E102K S103I E110P L124M V138D: Gaussia luciferase mutant (protein)
chain: B1 chain with L53P, P84K, E102K, S103I, E110P, L124M, V138D
modifications: SIGNAL (1)..(17)
notes: Gaussia luciferase mutant
B7: Q152K Q163T S170N G174N K178S A182Y G183A: Gaussia luciferase mutant (protein)
chain: B1 chain with L53P, Q152K, Q163T, S170N, G174N, K178S, A182Y, G183A
modifications: SIGNAL (1)..(17)
notes: Gaussia luciferase mutant
B8: Q152R Q163S T167S S170D G174K Q175E K178N A182M: Gaussia luciferase mutant (protein)
chain: B1 chain with L53P, Q152R, Q163S, T167S, S170D, G174K, Q175E, K178N, A182M
modifications: SIGNAL (1)..(17)
notes: Gaussia luciferase mutant
B9: Q152H S170D Q175E A182Y: Gaussia luciferase mutant (protein)
chain: B1 chain with L53P, Q152H, S170D, Q175E, A182Y
modifications: SIGNAL (1)..(17)
notes: Gaussia luciferase mutant
B10: Q152R Q163S T167G S170T G174K K178S A182M G183A: Gaussia luciferase mutant (protein)
chain: B1 chain with L53P, Q152R, Q163S, T167G, S170T, G174K, K178S, A182M, G183A
modifications: SIGNAL (1)..(17)
notes: Gaussia luciferase mutant
B11: Q152H Q163T T167G S170D G174N A182M G183A: Gaussia luciferase mutant (protein)
chain: B1 chain with L53P, Q152H, Q163T, T167G, S170D, G174N, A182M, G183A
modifications: SIGNAL (1)..(17)
notes: Gaussia luciferase mutant
B12: P84A E102A S103I D123L V138D: Gaussia luciferase mutant (protein)
chain: B1 chain with L53P, P84A, E102A, S103I, D123L, V138D
modifications: SIGNAL (1)..(17)
notes: Gaussia luciferase mutant
B13: Q152K Q163S T167S S170N G174N K178S A182Y G183A: Gaussia luciferase mutant (protein)
chain: B1 chain with L53P, Q152K, Q163S, T167S, S170N, G174N, K178S, A182Y, G183A
modifications: SIGNAL (1)..(17)
notes: Gaussia luciferase mutant
B14: Q152H Q163T T167G S170N Q175E A182L G183A: Gaussia luciferase mutant (protein)
chain: B1 chain with L53P, Q152H, Q163T, T167G, S170N, Q175E, A182L, G183A
modifications: SIGNAL (1)..(17)
notes: Gaussia luciferase mutant
B15: P84A E102A S103I E110P D123N: Gaussia luciferase mutant (protein)
chain: B1 chain with L53P, P84A, E102A, S103I, E110P, D123N
modifications: SIGNAL (1)..(17)
notes: Gaussia luciferase mutant
B16: Q152H S170D G174S K178T A182L: Gaussia luciferase mutant (protein)
chain: B1 chain with L53P, Q152H, S170D, G174S, K178T, A182L
modifications: SIGNAL (1)..(17)
notes: Gaussia luciferase mutant
B17: Q152H Q163D T167S S170N G174K A182L G183N: Gaussia luciferase mutant (protein)
chain: B1 chain with L53P, Q152H, Q163D, T167S, S170N, G174K, A182L, G183N
modifications: SIGNAL (1)..(17)
notes: Gaussia luciferase mutant
B18: E102K S103T A104G E110G V138D: Gaussia luciferase mutant (protein)
chain: B1 chain with L53P, E102K, S103T, A104G, E110G, V138D
modifications: SIGNAL (1)..(17)
notes: Gaussia luciferase mutant
B19: Q152H Q163D T167S S170D G174K Q175E K178S A182Y G183N: Gaussia luciferase mutant (protein)
chain: B1 chain with L53P, Q152H, Q163D, T167S, S170D, G174K, Q175E, K178S, A182Y, G183N
modifications: SIGNAL (1)..(17)
notes: Gaussia luciferase mutant
B20: Q152H Q163D S170N G174S Q175E D177S A182Y: Gaussia luciferase mutant (protein)
chain: B1 chain with L53P, Q152H, Q163D, S170N, G174S, Q175E, D177S, A182Y
modifications: SIGNAL (1)..(17)
notes: Gaussia luciferase mutant

assay: Luminescence activity assay of purified Gaussia luciferase mutants on coelenterazine derivative ZS2; format: biochemical; set-up: key to Activity of mutant relative to wild-type Gaussia luciferase without the signal peptide: ratio of mutant luminescence intensity to wild-type Gaussia luciferase; settings: Substrate ZS2 (Table 16)
Summary of the method: (§1)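 Readout: luminescence intensity, as ratio to signal-peptide-free wild-type enzyme. Enzyme 1 μg/mL, substrate 100 μM stock, 10 μL + 90 μL; buffer 50 mM Tris-HCl pH 8.0, 100 mM NaCl, 0.1% Tween-20.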

| Activity of mutant relative to wild-type Gaussia luciferase without the signal peptide | Molecule |
| --- | --- |
| 0.002 | B1 |
| 0.550 | B2 |
| 0.001 | B3 |
| 0.862 | B4 |
| 0.136 | B5 |
| 0.536 | B6 |
| 0.026 | B7 |
| 3.139 | B8 |
| 0.723 | B9 |
| 2.367 | B10 |
| 0.001 | B11 |
| 0.825 | B12 |
| 0.819 | B13 |
| 0.087 | B14 |
| 1.409 | B15 |
| 2.672 | B16 |
| 0.159 | B17 |
| 0.065 | B18 |
| 0.068 | B19 |
| 0.347 | B20 |

assay: Luminescence activity assay of purified Gaussia luciferase mutants on fluoro-coelenterazine; format: biochemical; set-up: key to Activity of mutant relative to wild-type Gaussia luciferase without the signal peptide: ratio of mutant luminescence intensity to wild-type Gaussia luciferase; settings: Substrate f-CTZ (Table 16)
Summary of the method: as §1

| Activity of mutant relative to wild-type Gaussia luciferase without the signal peptide | Molecule |
| --- | --- |
| 0.010 | B1 |
| 2.719 | B2 |
| 0.009 | B3 |
| 0.215 | B4 |
| 0.512 | B5 |
| 3.010 | B6 |
| 0.299 | B7 |
| 1.020 | B8 |
| 0.583 | B9 |
| 1.864 | B10 |
| 0.478 | B11 |
| 0.991 | B12 |
| 1.175 | B13 |
| 0.172 | B14 |
| 1.802 | B15 |
| 2.069 | B16 |
| 0.234 | B17 |
| 4.919 | B18 |
| 0.509 | B19 |
| 0.404 | B20 |

assay: Luminescence activity assay of purified Gaussia luciferase mutants on coelenterazine; format: biochemical; set-up: key to Activity of mutant relative to wild-type Gaussia luciferase without the signal peptide: ratio of mutant luminescence intensity to wild-type Gaussia luciferase; settings: Substrate CTZ (Table 16)
Summary of the method: as §1

| Activity of mutant relative to wild-type Gaussia luciferase without the signal peptide | Molecule |
| --- | --- |
| 0.007 | B1 |
| 0.622 | B2 |
| 0.000 | B3 |
| 1.749 | B4 |
| 0.011 | B5 |
| 0.036 | B6 |
| 0.194 | B7 |
| 4.609 | B8 |
| 0.615 | B9 |
| 1.171 | B10 |
| 0.080 | B11 |
| 0.473 | B12 |
| 0.906 | B13 |
| 0.177 | B14 |
| 1.343 | B15 |
| 4.938 | B16 |
| 0.144 | B17 |
| 0.106 | B18 |
| 0.383 | B19 |
| 1.007 | B20 |
